Test results taken from the nanobody polyreactivity screen of Harvey et al. (2022).

Experiment: yeast display, Sf9 membrane polyspecificity reagent, FACS + sequencing; frameworks hold sequencing errors
Procedure, shortened: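 Nanobodies from a synthetic yeast display library (Saccharomyces cerevisiae BJ5465), induced 36–48 hours with galactose, were stained 1 hour at 4 °C with 10% biotinylated, detergent-solubilized Sf9 membrane reagent, enriched on streptavidin microbeads, then FACS-sorted. Anti-HA (expression) and streptavidin (reagent binding) fluorescence set low and high (top ~1%) gates. Polyreactivity labels come from the gate of origin. Genes were colony-PCR amplified, MiSeq 2 × 250 sequenced and filtered by CDR length.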

| Sequence | polyreactivity (PSR sort gate) |
| --- | --- |
| QVQLEESGGGLVQAGGSLRLSCAAAGINFTYYAMGWYRQAPGKERELVAAISYRGGSTYADSVKGRFTISRDNAKNTVYLPMNSLKPEDTAVYYFAADSPVPDSGEGYWGQGTQVTVSS | high polyreactivity |
| QVQLEESGGGLVQAGGSLRLSCAASGFIFFAYAMGWYRQAPGKERELVAAISRTGGSTYYADSVKGRFTISRDNAKNTVYLLMNSLKPEDTAVYYCAAVVSRTYQWWTYDYWGQGTQVTVSS | high polyreactivity |
| QVQLEESGGGLVQAGGSLRLSCAASGFIFFKYAMGWYRQAPGKEREFVAAISKSGTSTYYADSVKGRFTISRDNAKNTVYLQMNSLKPEDTAVYYCAKRYLTRYKGYYYWGQGTQVTVSS | high polyreactivity |
| QVQLEESGGGLVQAGGSLRLSCAASGFIFGYYGMGWYRQAPGKERELVAAITDGGSTTYADSVKGRFTISRDNAKNTVYLQMNSLKPEDTAVYYCNAEAGGFDYYGKTYRYGDYWGQGTQVTVSS | low polyreactivity |
| QVQLEESGGGLVQAGGSLRLSCAASGFIFVRNAMGWYRQAPGKERELVAAITRSGGSTSYADSVKGRFTISRDNAKNTVYLQMNSLKPEDTAVYYCAPQYGYWGQGTQVTVSS | high polyreactivity |
| QVQLEESGGGLVQAGGSLRLSCAASGFIFYWYAMGWYIKAPGKERELVAAITRSGGRTYYADSVKGRFTFSRDNAKNTVYLQMNRLKPEDTAVYYCNAGYWLSPYKFGYWGQGTQVTVSS | high polyreactivity |
| QVQLEESGGGLVQAGGSLRLSCAASGFIYRGYTMGWYRTAPGKERELVAGITSTASTNYADSVKGRFTISRDNAKNTVYLQMNSLKPEDTAVYYCAAGVPYRLRNRYYYWGQGTQVTVSS | high polyreactivity |
| QVQLEESGGGLVQAGGSLRLSCAASGFSFVTYPMGWYRQAPGKEREFVATISRSGGSTYYADSVKGRFTISRDNAKNTVYLQMNSLKPEDTAVYYCAARGRYPYRYGYWGQGTQVTVSS | high polyreactivity |
| QVQLEESGGGLVQAGGSLRLSCAASGFTFELYAMGWYRQAPGKVRELVAAISYSGGSTYYADSVKGRFTISRDNAKNTVYLQMNSLKPEDTAVYYCNAVYWPYSGPVYTIVDYWGQGTQVTVSS | low polyreactivity |
| QVQLEESGGGLVQAGGSLRLSCAASGFTFGSYAMGWYRQAPGKEREFVAAISLGGARTYYADSVKGRFTMSRDNAKNTVYLQMHSLKPEDTAVYYGNARGIGRSTKWSSRDYWGQGTQVTVSS | high polyreactivity |
| QVQLEESGGGLVQAGGSLRLSCAASGFTFNPYTMGWYRQAPGKERELVAAITSSGGSTYYADSVKGRFTISRDNAKNTVYLQMNSLKPEDTAVYYCAKLRTASIYDYWGQGTQVTVSS | low polyreactivity |
| QVQLEESGGGLVQAGGSLRLSCAASGFTFPWNVMGWYRQAPGKEREFVAAISKSAGSTFYADSVKGRFTISRDNAKNTVYLQMNSLKPEDTAVYYCAKPRVPGVHVQEMYYWGQGTQVTVSS | low polyreactivity |
| QVQLEESGGGLVQAGGSLRLSCAASGFTFRLYAMGWYRHAPGKERELFARISSGGSTHYADSVKGRFTISRDNAKNTVFLQMNSLKPEDTAVYYCAAGWGYWRSYGSWGQGTQVTFSS | high polyreactivity |
| QVQLEESGGGLVQAGGSLRLSCAASGFTFRRYAMGWYRQAPGKERELVAAITRSGSSTYYADSVKGRFTISRDNAKNTVYLQMNSLKPEDTAVYYCARYHLRPTDGFDYWGQGTQVTVSS | high polyreactivity |
| QVQLEESGGGLVQAGGSLRLSCAASGFTFSGYDMGWYRQAPGKERELVAGISSGGVSTTYADSVKGRFTISRDNAKNTVYLQMNSLKPEDTAVYYCNAEWTSFDWGQGTQVTVSS | low polyreactivity |
| QVQLEESGGGLVQAGGSLRLSCAASGFTFSGYDMGWYSPAPGKERELVAGISYGGVSTTYADSVKGRFTISRDNAKNTVYVQMNSLKPEDTAVYYCNAEWTSFDWGQGTQVTVSS | low polyreactivity |
| QVQLEESGGGLVQAGGSLRLSCAASGGTFTNYAMGWYRQAPGTERELVAAITDSGATTYYADSVKGRFTISRDNAKNTVYLQMNRLKPEDNAVYYCNAELDLYTDFDYWGQGTQVTESS | low polyreactivity |
| QVQLEESGGGLVQAGGSLRLSCAASGIIFAYYAMGWYRQAPGKERELVGTNYADSVKGRFTISRDNAKNTVYLQMNSLKPEDTAVYYCAVVGGEFSSYGYWGQGTLVTVSS | low polyreactivity |
| QVQLEESGGGLVQAGGSLRLSCAASGIIFSYYDMGRYRQAPGKERELVATITRKGGSTYYADTVKGRFTISRDYAKNTVYFQMNSLKPEDTAVYYCAAQTTVYIYDYWGQGSQVTVSS | low polyreactivity |
| QVQLEESGGGLVQAGGSLRLSCAASGIIFWWYAMGWYRQAPGKERELVAAISGTGGSTYYADSVKGRFTISRDNAKNTVYLQINRLKPEDTAVYFCAARGKSSSFYDYDYWGQGTQVTVSS | low polyreactivity |
| QVQLEESGGGLVQAGGSLRLSCAASGITFPRYAMGWYRQAPGKERELVAAIRWNGGSTYYADSVKGRFTISRDNAKNTVYLQMNSLKPEDTAVYYCAARKDPSFSSFGYGYWGQGTQVTVSS | high polyreactivity |
| QVQLEESGGGLVQAGGSLRLSCAASGITFRAYAMGWYRQAPGKERELVAAITGRGGRTYYADSVKGRFTISRDNAKNTVYLQMNSLKPEDPAVYYCNAYLWRVNQTYDYWGQGTQVTVSS | high polyreactivity |

| Sequence | polyreactivity (PSR sort gate) |
| --- | --- |
| QVQLEESGGGLVQAGGSLRLSCAASGITFRYYAMGWYRQAPGKEWELVAAITRSGSSTFYADSVKGRFTISRDNAKNTVYLQMNSLKPEDSAVYYCAAESVRAVFPDRYKYWGQGTQVTVSS | high polyreactivity |
| QVQLEESGGGLVQAGGSLRLSCAASGITFSDYAMGWYRQAPGKERELVAGISFTVGSTYYADSVKRPFTISRDNAKNTVYLQMNSLKPEDTAVYLCNADSFVDLDYWGQGTQVTVSS | low polyreactivity |
| QVQLEESGGGLVQAGGSLRLSCAASGITFVDYDMGWYRQATGKERELVAAITTGSSTYYADSVKGRFTISRDNAKNTVYLQMNSLKPEDTAVYYCARDLEYDYYQQWSYGYWGQGTQVTVSS | low polyreactivity |
| QVQLEESGGGLVQAGGSLRLSCAASGITFWHNTMGWYRQATGKEREMVAAISWTGGRTYYADSVKGRFTISRDNAKNTVYLQMNSLKPDDTAVYYCAADFSWTPSGNYDSWGQGTQVTVSS | low polyreactivity |
| QVQLEESGGGLVQAGGSLRLSCAASGITLAHNAMGWYRQAAGKERELVASITESGGSTYYADSVKGRFTISRDNAKNTVYLQMNRLKPEDTAVYYCAVRPTVGYWTVYYWGQGTQVTVSS | high polyreactivity |
| QVQLEESGGGLVQAGGSLRLSCAASGITSPAYAMGWYRQAPGKEREFVAAISSSGGSTYYADSVKGRFTISRDNAKNTVYLQMNSLKPEDTAVYYCAVRGRISSVSRYGYWGQGTQVTVSS | high polyreactivity |
| QVQLEESGGGLVQAGGSLRLSCAASGLTFAYNTMGWYRQAPGKEREFVASISSSGGNTYYADSVKGRFTISRDNAKNTVYLQMNSLKPEDTAVYYCAAKKKYHYVASYKRFEYWGQGTQVTVSS | low polyreactivity |
| QVQLEESGGGLVQAGGSLRLSCAASGLTFPSNAMGWYRQATGKERALVASISKRGGRTYYADSVKGRFTISRDNAKHTVYLQMNSLKPEDTAVYDCATPYAYPGSVQYAGYNYWGQGTQVTVSS | high polyreactivity |
| QVQLEESGGGLVQAGGSLRLSCAASGNIFPRYAMGWYRQAPGKERELVAAISYSGARTYYADSVKGRFTISRDNAKNTVYLQMNSLKPEDTAVYYCNKRVYYPWGQGTQVTVSS | high polyreactivity |
| QVQLEESGGGLVQAGGSLRLSCAASGRIFNTNAMGSYRQAPGKERELVAGITYSGDSTYYADSVKGRFTISRDNAKNTVYLQMNSLKPEDTAVYYCATDPASPYLYDYWGQGTQVTVSS | low polyreactivity |
| QVQLEESGGGLVQAGGSLRLSCAASGRIFPRNAMGWYRQATGKERELVASITSGGSTNYADSVKGRFTISRDNAKNTVYLQMHSLKPEDTAVYYCAADRTGYQLETTEYDYWGQGTQVTVSS | high polyreactivity |
| QVQLEESGGGLVQAGGSLRLSCAASGRIFPTYVMGWYRQAPGKERELVAAITSIDGRTYYADSVKGRFTISRDNAKNTVYLQMNSLKPEDTAVYYCAADYDYLSISEGYYWGQGTQVTVSS | low polyreactivity |
| QVQLEESGGGLVQAGGSLRLSCAASGRIFQRNAMGWYRQAPGKEREFVAAITKSGGGTYADSVKGRFTISRDNAKNTVYLQMNSLKAEDTAVYYCNVVPVWRPYSLINWQKDFGYWGQGTQVTVSS | high polyreactivity |
| QVQLEESGGGLVQAGGSLRLSCAASGRIFRGNAIAWYRQAPGKERELVASITRGNNTYYADSVKGRFTISRDNAKNTVYLQMNSLKPEDTAVYYCAKRYIYRYYWGQGTQVTVSS | high polyreactivity |
| QVQLEESGGGLVQAGGSLRLSCAASGRIFRYTLGWYRQAPGKERELVATINSGGRTYDADSVKGRFTISRDNAKNTVYLQMNSLKPEDTAVYYCAATYQTKSNKYVHGSPIENDYWGQGTQVTGSS | low polyreactivity |
| QVQLEESGGGLVQAGGSLRLSCAASGRIFVTNAMGWSRQAPGKERELVADITSGGSTNYADSVKGRFTISRDNAKNTVYLQMNSLKPEDTAVYYCAARFTPYITSDDGHYDYWGQGTQVTVSS | low polyreactivity |
| QVQLEESGGGLVQAGGSLRLSCAASGRIFWANAMGWSRQAPGKERELVAAINRRTGITYYADSVKGRFTISRDNAKNTVYLQMNSLKPEDTAVYYCNAGSSPIRQYYGQVWKKGGYWGQGTQVTVSS | high polyreactivity |
| QVQLEESGGGLVQAGGSLRLSCAASGRIFYDYAMGWYRKAPGKERELVATISWSAGIKYYADSVKGRFTISRDNAKNTVYLQMNSLKPEDTAVYYCAKVGRYTYSGQYDYWGQGTQVTVSS | high polyreactivity |
| QVQLEESGGGLVQAGGSLRLSCAASGRIFYLNAMGWYRQAHGKERDLVAAITRSAASTHYADSVKGRFTISRDNAKNTVYLQLNSLKPEDTAVYYCAARFWYDYRHYDYWGQGTQVSVSS | low polyreactivity |
| QVQLEESGGGLVQAGGSLRLSCAASGRIIRINPMGLYRQAPGKERELVAAITRGGTTYADSVKGRFTFSRDNAKNTVYLQMNSLKPEDTAVYYCNARTGRSPTGFLYWGQGTQVTVSS | high polyreactivity |
| QVQLEESGGGLVQAGGSLRLSCAASGRIYRYYDMGWYRQAPGKEREFVAAITRSGAITYYADSLKGRFTISRDNAKNTVYLQMNSLKPEDTAVYYCAAVDDDYSIVWYDYWGQVTQVTVSS | low polyreactivity |
